This note sets out measurements from US20180327746, “Alpha-AMYLASE-BINDING NUCLEIC ACID MOLECULE AND USE THEREOF” (NEC Solution Innovators, Ltd., published 2018).

Data set [1] addresses T1, alpha-amylase (Homo sapiens, UniProt P0DUB6 P0DUB6:16-511).
T1 sequence: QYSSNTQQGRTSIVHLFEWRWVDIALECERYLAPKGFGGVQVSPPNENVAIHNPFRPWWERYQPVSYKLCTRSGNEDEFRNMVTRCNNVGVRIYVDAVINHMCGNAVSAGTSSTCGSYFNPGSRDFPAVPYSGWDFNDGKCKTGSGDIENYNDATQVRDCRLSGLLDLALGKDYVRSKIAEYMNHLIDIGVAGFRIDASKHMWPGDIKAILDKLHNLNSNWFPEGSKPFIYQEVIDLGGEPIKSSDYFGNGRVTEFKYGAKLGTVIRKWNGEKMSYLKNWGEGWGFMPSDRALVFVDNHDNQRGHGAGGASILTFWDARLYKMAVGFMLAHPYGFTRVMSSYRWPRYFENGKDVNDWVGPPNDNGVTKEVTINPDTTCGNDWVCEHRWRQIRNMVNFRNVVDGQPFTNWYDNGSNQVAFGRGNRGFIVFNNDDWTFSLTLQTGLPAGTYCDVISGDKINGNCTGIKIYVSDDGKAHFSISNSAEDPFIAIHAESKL
The data set can be described thus: SPR; SPR buffer with 1 mM MgCl2, pH 7.4; Chi2 3.85. As to conditions: tags: none stated; commercial human alpha-amylase, Lee Biosolutions; label: 3' poly(dA)20 captured on biotin-poly(dT)20. As to the method:
(§1) Biotinylated poly(dT) at 5 μmol/L was injected to a flow cell of the sensor chip using ultrapure water (DDW), and the binding was allowed to proceed until the signal intensity (RU: Resonance Unit) reached about 900 RU. The biotinylated poly(dT) was prepared by biotinylating the 5′ end of 20-mer deoxythymidine. Then, the poly(dA)-added aptamer at 200 nmol/L was injected to the flow cell of the chip using an SPR buffer at a flow rate of 25 μL/min for 80 seconds, and the binding was allowed to proceed until the signal intensity reached about 800 RU. […] With 0 seconds being the start of the injection, the mean value of signal intensities from 115 seconds to 125 seconds was determined. […] Then, the value (B/A) obtained by dividing the protein binding measured value (B) by the aptamer immobilization measured value (A) was determined as a relative value (Relative Unit).
(§2) The binding ability of the aptamers was analyzed by SPR in the same manner as in Example 1, except that the concentration of the α-amylase in the specimen was set to a plurality of values. The concentration was set to 20 nmol/L, 10 nmol/L, 5 nmol/L, 2.5 nmol/L, and 1.25 nmol/L. Then, from the results obtained by the SPR analysis, the kinetic parameter and the chi-squared value were calculated.
A general note: SPR reads the build-up and loss of mass on a sensor chip optically.

The target of data set [2] is T1, alpha-amylase. The data set can be described thus: SPR; SPR buffer with 1 mM MgCl2, pH 7.4; Chi2 4.17. The note with it: tags: none stated; commercial human alpha-amylase, Lee Biosolutions; label: 3' poly(dA)20 captured on biotin-poly(dT)20. As to the method: as §1, §2
The target of data set [3] is T1, alpha-amylase. Nature of the data set: SPR; SPR buffer with 1 mM MgCl2, pH 7.4; Chi2 5.05. As to conditions: tags: none stated; commercial human alpha-amylase, Lee Biosolutions; label: 3' poly(dA)20 captured on biotin-poly(dT)20. Here is the method:
as §1, §2

The target of data set [4] is T1, alpha-amylase. Nature of the data set: SPR; SPR buffer with 1 mM MgCl2, pH 7.4; Chi2 3.26. The note with it: tags: none stated; commercial human alpha-amylase, Lee Biosolutions; label: 3' poly(dA)20 captured on biotin-poly(dT)20. Here is the method:
as §1, §2

Data set [5] concerns the target T1, alpha-amylase. Nature of the data set: SPR; SPR buffer with 1 mM MgCl2, pH 7.4; Chi2 30.79. The note with it: tags: none stated; commercial human alpha-amylase, Lee Biosolutions; label: 3' poly(dA)20 captured on biotin-poly(dT)20. As to the method: as §1, §2
Data set [6] has as its target T1, alpha-amylase. The data set can be described thus: SPR; SPR buffer with 1 mM MgCl2, pH 7.4; Chi2 23.87. As to conditions: tags: none stated; commercial human alpha-amylase, Lee Biosolutions; label: 3' poly(dA)20 captured on biotin-poly(dT)20. As to the method: as §1, §2
Data set [7] has as its target T1, alpha-amylase. The data set can be described thus: SPR; SPR buffer with 1 mM MgCl2, pH 7.4; Chi2 10.58. As to conditions: tags: none stated; commercial human alpha-amylase, Lee Biosolutions; label: 3' poly(dA)20 captured on biotin-poly(dT)20. Here is the method: as §1, §2
The target in data set [8] is T1, alpha-amylase. The data set can be described thus: SPR; SPR buffer with 1 mM MgCl2, pH 7.4; Chi2 31.8; text says all Kd 17 nM or less. The note with it: tags: none stated; commercial human alpha-amylase, Lee Biosolutions; label: 3' poly(dA)20 captured on biotin-poly(dT)20. Here is the method:
Then, the poly(dA)-added aptamer at 200 nmol/L was injected to the flow cell of the chip using an SPR buffer at a flow rate of 25 μL/min for 80 seconds, and the binding was allowed to proceed until the signal intensity reached about 800 RU. […] Subsequently, the specimen was injected using the SPR buffer at a flow rate of 50 μL/min for 120 seconds, followed by washing performed by flowing the SPR buffer under the same conditions for 300 seconds. The concentration of the human α-amylase in the specimen was set to 400 nmol/L. Signal intensity measurement was performed concurrently with the injection of the specimen and the washing with the SPR buffer. With 0 seconds being the start of the injection, the mean value of signal intensities from 115 seconds to 125 seconds was determined. […] Then, the value (B/A) obtained by dividing the protein binding measured value (B) by the aptamer immobilization measured value (A) was determined as a relative value (Relative Unit).
as §2

In data set [9] the target is T1, alpha-amylase. Nature of the data set: SPR; SPR buffer with 1 mM MgCl2, pH 7.4; Chi2 24.55. The note with it: tags: none stated; commercial human alpha-amylase, Lee Biosolutions; label: 3' poly(dA)20 captured on biotin-poly(dT)20. As to the method:
as §1, §2

Data set [10] deals with T1, alpha-amylase. The data set can be described thus: SPR; SPR buffer with 1 mM MgCl2, pH 7.4; Chi2 4.3. As to conditions: tags: none stated; commercial human alpha-amylase, Lee Biosolutions; label: 3' poly(dA)20 captured on biotin-poly(dT)20. Here is the method:
as §1, §2

Data set [11] has as its target T1, alpha-amylase. The data set can be described thus: capillary electrophoresis; 200 nM aptamer, 2 uM amylase, 40 mM HEPES pH 7.5, 1 mM MgCl2. The note with it: tags: none stated; commercial human alpha-amylase, Lee Biosolutions; label: 5' TYE665. Here is the method: (§3) Reaction solutions containing the labeled aptamer (SEQ ID NO: 1) were prepared. Each of the reaction solutions was subjected to CAE under the following conditions. The reaction solution was caused to migrate while separating the components therefrom, and the fluorescence at a maximum absorption wavelength (665 nm) of the fluorescent substance was measured. As the reaction solutions, the following four types of reaction solutions were used: a reaction solution 1 containing the labeled aptamer only; a reaction solution 2 containing the labeled aptamer and the α-amylase; a reaction solution 3 containing the labeled aptamer and the saliva; and a reaction solution 4 containing the labeled aptamer as the negative control and the saliva. In each of the reaction solutions, the concentration of the labeled aptamer was 200 nmol/L. In the reaction solution 2, the concentration of the α-amylase was 2 μmol/L. In the reaction solutions 3 and 4, the concentration of the saliva was 10%. The reminder of each of the reaction solutions was a buffer solution. The composition of the buffer solution was as follows: 40 mmol/L HEPES (pH 7.5), 125 mmol/L NaCl, 5 mmol/L KCl, and 1 mmol/L MgCl₂.

The next data set deals with T2, chromogranin A (CgA) (Homo sapiens, UniProt P10645 P10645:19-457).
T2 sequence: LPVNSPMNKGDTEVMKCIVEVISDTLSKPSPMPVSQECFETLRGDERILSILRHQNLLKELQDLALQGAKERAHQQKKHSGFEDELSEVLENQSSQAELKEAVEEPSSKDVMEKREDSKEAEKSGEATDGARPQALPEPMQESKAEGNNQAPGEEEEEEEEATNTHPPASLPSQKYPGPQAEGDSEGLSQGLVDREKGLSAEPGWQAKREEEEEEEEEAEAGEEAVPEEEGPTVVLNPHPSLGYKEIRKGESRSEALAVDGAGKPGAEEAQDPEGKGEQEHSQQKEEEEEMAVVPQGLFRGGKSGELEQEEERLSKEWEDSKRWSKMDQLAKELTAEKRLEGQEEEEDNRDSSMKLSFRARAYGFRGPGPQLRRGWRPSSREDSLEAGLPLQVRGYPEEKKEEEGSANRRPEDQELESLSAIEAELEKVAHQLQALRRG
The data set can be described thus: capillary electrophoresis specificity control. As to conditions: tags: N-terminal His-tag; full length, Creative BioMart CHGA-26904TH; label: 5' TYE665. As to the method:
as §3
Preparation of the reaction solution 2 and the binding ability analysis by CAE were carried out in the same manner as in the above item (3), except that the labeled aptamers (SEQ ID NOs: 1, 2, 3, and 19) were used. Further, in order to examine the specificity of the labeled aptamers to the α-amylase, the binding ability analysis by CAE was performed in the same manner as in the case where the above-described reaction solution 2 was used, except that, instead of the α-amylase, human chromogranin A (CgA, recombinant full length protein, Creative BioMart, #CHGA-26904TH) or human IgA (secretory, Biomedicals, LLC-Cappel Products, #55905), each having a His-tag fused at the N terminus were used.

B1: Amy_258KK10R8m1 (ssDNA)
DNA: GGTTACGCCCAGGACACATTTCAAAAGATGATGGCATACGTAAAGGGTCGAGGTAAGCTCGGTCTCCTCGGATAATCAAAAAAAAAAAAAAAAAAAA
modifications: KK10 modified T (formula 2) at double-underlined T, i.e. T 3' of the 5' primer region
As usually defined, the Kd is the equilibrium constant for the complex coming apart. High values mean lower affinity, low ones higher affinity. The molecule B1 came in with an equilibrium dissociation constant (Kd) in the data set with alpha-amylase [1] of 2.72 nM.

B2: AML1243KR8m1s65_FW_s20 (ssDNA)
DNA: TACCTTAACGCCGCCTATTGTGAACGACGTGAATAGTGTTTGTGGGTCCGGAGTTGCACCCGAAAAAAAAAAAAAAAAAAAA
modifications: KS9 modified T (formula 1) at underlined T, i.e. T 3' of the 5' primer region
As for B2, in the data set with alpha-amylase [2], the dissociation constant (Kd) turned out to be 0.68 nM.

B3: Amy_258KK10R8m2 (ssDNA)
DNA: GGTTACGCCCAGGACACATTTCATTGATGGCATACTAAGGGTCGAGGAATTCGTAAGCTCGGTCTCCTCGGATAATCAAAAAAAAAAAAAAAAAAAA
modifications: KK10 modified T (formula 2) at double-underlined T, i.e. T 3' of the 5' primer region
Turning to B3, the equilibrium dissociation constant (Kd) with alpha-amylase [3] was determined as 2.3 nM.

B4: AML1243KR8m1s58_FW_s20 (ssDNA)
DNA: TACCTTAACGCCGCCTATTGTGAACGACGTGAATAGTGTTTGTGGGTCCGGAGTTAAAAAAAAAAAAAAAAAAAA
modifications: KS9 modified T (formula 1) at underlined T, i.e. T 3' of the 5' primer region
B4 registered a dissociation constant (Kd) with alpha-amylase [4] of 0.707 nM.

B5: AML1243KR8m3s63Fw_s15 (ssDNA)
DNA: TAACGCCGCCTATTGCGAGGTGTGGCTAGTCGTTATAGGTCCACCGAGTTGCACCAAAAAAAAAAAAAAAAAAAA
modifications: KS9 modified T (formula 1) at underlined T, i.e. T 3' of the 5' primer region
For B5, the Kd with alpha-amylase [5] turned out to be 18.7 nM.

B6: AML1243KR8m2 (ssDNA)
DNA: GGATACCTTAACGCCGCCTATTGCTATGAGTAGTGTTTGTAGGTCTGGCATGCGAGTTGCACCCGTCTCGAAATCAAAAAAAAAAAAAAAAAAAA
modifications: KS9 modified T (formula 1) at underlined T, i.e. T 3' of the 5' primer region
In the data set with alpha-amylase [6], B6 displayed a Kd of 2.6 nM.

B7: AML1243KR8m1_KS9-3_mini (ssDNA)
DNA: GTGAACGACGTGAATAGTGTTTGTGGGTCCGGAGTTAAAAAAAAAAAAAAAAAAAA
modifications: KS9 modified T (formula 1) at all T
In the data set with alpha-amylase [7], B7 gave a Kd of 0.607 nM.

B8: AML1243KR8m3 (ssDNA)
DNA: GGATACCTTAACGCCGCCTATTGCGAGGTGTGGCTAGTCGTTATAGGTCCACCGAGTTGCACCCGTCTCGAAATCAAAAAAAAAAAAAAAAAAAA
modifications: KS9 modified T (formula 1) at underlined T, i.e. T 3' of the 5' primer region
In turn, B8 had an equilibrium dissociation constant (Kd) in the data set with alpha-amylase [8] of 19.9 nM.

B9: AML1243KR8m2s49Fw_s15 (ssDNA)
DNA: TAACGCCGCCTATTGCTATGAGTAGTGTTTGTAGGTCTGGCAAAAAAAAAAAAAAAAAAAA
modifications: KS9 modified T (formula 1) at underlined T, i.e. T 3' of the 5' primer region
B9 returned a Kd with alpha-amylase [9] of 2.66 nM.

B10: AML1243KR8m1 (ssDNA)
DNA: GGATACCTTAACGCCGCCTATTGTGAACGACGTGAATAGTGTTTGTGGGTCCGGAGTTGCACCCGTCTCGAAATCAAAAAAAAAAAAAAAAAAAA
modifications: KS9 modified T (formula 1) at underlined T, i.e. T 3' of the 5' primer region
B10 registered a Kd with alpha-amylase [10] of 0.805 nM.

B11: TYE665-AML1243KR8m1 (ssDNA)
DNA: GGATACCTTAACGCCGCCTATTGTGAACGACGTGAATAGTGTTTGTGGGTCCGGAGTTGCACCCGTCTCGAAATC
modifications: KS9 modified T (formula 1) at underlined T, i.e. T 3' of the 5' primer region
With B11, the binding result was “binds” with alpha-amylase [11] and “no binding” with chromogranin A (CgA).
